Data reported in patent US8399414B2, “Analgesics” (NRL Pharma, Inc., priority 2002, dated 2013).

Tests used:
beagles [1] = assay: single dose acute toxicity study (GLP), oral; format: in vivo; conditions: maximum dose of 5 g/kg
Description: (§1) In toxicity studies in beagles and rats carried out by the inventors in accordance with GLP, lactofferin extracted from milk (manufactured by Tatua Milk Industry Co., Ltd., New Zealand, purity: 87%) was non-toxic after oral administration at physical limit doses. […] Accordingly, lactoferrin is probably non-toxic after oral administration and has almost ideal characteristics as a therapy for cancer. It is likely that lactoferrin defends opportunistic infections frequently occurring in immunocompromised hosts such as patients with cancer, prevents carcinogenesis, inhibits the growth of cancer, prevents metastasis, and destructs a metastatic lesion. Further, it is probably highly safe when administered to patients declining in immunopotency, such as aged patients.

rats [2] = assay: single dose acute toxicity study (GLP), oral; format: in vivo; conditions: maximum dose of 5 g/kg
Description: as §1

beagles [3] = assay: subacute toxicity study, dosing period of 3 months, oral; format: in vivo; conditions: maximum dose of 2 g/kg
Description: as §1

rats [4] = assay: as above; format: in vivo; conditions: maximum dose of 2 g/kg
Description: as §1

rodent animals [5] = assay: hot plate test; format: in vivo; conditions: administration before test
Description: (§2) The inventors carried out, using rodent animals, animal tests related to pain: (1) hot plate test, (2) formalin test and (3) acetic acid rising test to examine the influences of lactoferrin administration on the animals' sensation of pain.

rodent animals [6] = assay: acetic acid rising test; format: in vivo; conditions: administration before test
Description: as §2

male Wistar rats [7] = assay: formalin test, intraperitoneal administration (Example 1); format: in vivo, rat
Description: (§3) Formalin test is a typical pain sensation stimulating test. It is a method for determining an analgesic effect of drugs in which 50 μl of 2% formalin is injected into a foot pad of each experimental rat and the foot-lifting and foot-licking behavior of the rats is observed.
Ten male Wistar rats (6 weeks of age) were randomly divided into two groups, and one hour before injecting formalin, the rats in the control group were given saline solution (1 ml/kg) and those in the lactoferrin group were given bovine lactoferrin dissolved in saline solution (100 ml/kg, Tatua Milk Industry Co., Ltd., purity: 87%) by intraperitoneal injection. After one hour, formalin solution was injected into the foot pad of each rat, and the foot-lifting and foot-licking behavior of each rat due to the stimulation of the pain sensation was measured for one hour (FIGS. 1 and 2).

male Wistar rats [8] = assay: formalin test, oral administration in feed for 4 weeks (Example 2); format: in vivo, rat; conditions: 1% bovine lactoferrin in feed for 4 weeks
Description: as §3
Fourteen male Wistar rats (6 weeks of age) were randomly divided into two groups, and the rats in one group were fed standard feed powder for rodent animals (Clea Japan, Inc., CE-2) while those in the other group fed CE-2 with 1% bovine lactoferrin added thereto for 4 weeks. Four weeks later, formalin solution was injected into the foot pad of each rat, and the foot-lifting and foot-licking behavior of each rat due to the pain sensation stimulation was measured for one hour (FIGS. 3 and 4).

male Wistar rats [9] = assay: formalin test, comparison with diclofenac (Example 3); format: in vivo, rat; conditions: i.p. 30 minutes before formalin
Description: Male Wistar rats 6 weeks of age were used. The rats in one group were given bovine lactoferrin and those in another group were given a control drug, diclofenac, by intraperitoneal administration 30 minutes before injecting formalin into their foot pads. Their responses to pain are shown in FIG. 5: the phase 1 pain (left) and the phase 2 pain (right).
Lactoferrin and diclofenac were administered intraperitoneally 30 minutes before formalin injection both in the control group (n=4) and the diclofenac group (n=5). The pain inhibiting effect of diclofenac disappeared about 50 minutes after formalin injection, whereas the pain inhibiting effect of lactoferrin lasted long and even 60 minutes after formalin injection.

male Wistar rats [10] = assay: ethanol and restriction stress gastric ulcer (Example 4); format: in vivo, rat; conditions: 1% bovine lactoferrin in feed for 8 weeks; relative to control group
Description: Sixteen male Wistar rats (6 weeks of age) were randomly divided into two groups, and the rats in one group (n=8) were fed standard feed powder for rodent animals (CLEA JAPAN, INC., CE-2) while those in the other group (n=8) fed CE-2 with 1% bovine lactoferrin added thereto for 8 weeks. Eight weeks later, the rats were deprived of food for one night, administered orally and forcibly 5 ml/kg weight of 50% ethanol, and subsequently inflicted with restriction stress for 2 hours. Two 2 hours later, the stomach of each rat was excised and “number of hemorrhagic spots”, “area of hemorrhage”, “number of ulcers”, “number of large ulcers” and “areas of ulcers” on the gastric mucosa were measured.

[11] = tested on: adjuvant arthritis rat model; format: in vivo; conditions: LF 100 mg/kg oral sid or bid, Dex 1 mg/kg i.p. sid
Description: The preventive/therapeutic effects against arthritis of orally administered lactoferrin (LF) and the mechanism of the action were examined using an adjuvant arthritis rat model as an animal model with rheumatoid arthritis.
Evaluation of the above described effects was performed by measuring the change in volume of foot due to swelling, Flexion test (pain in joints caused in flexion and extension test), and the production of cytokine by the stimulation of lipopolysaccharide.
Adjuvant was injected subcutaneously into the sole of the right hind leg of each rat, and the volume of the feet was measured once a day to obtain the swelling rate of the feet of both hind legs. The test substance was suspended in 0.5% CMC and administered once or twice a day for 18 consecutive days starting from the first dose 3 hours before adjuvant treatment (day 0). On 4th and 10th days after treating with adjuvant, the swollen tarsal joint of each rat was extended 10 times and the number of times each rat screamed due to the stimulation of pain sensation caused by flexing and extending its tarsal joint was measured.

[12] = tested on: adjuvant arthritis rat model; assay: adjuvant arthritis rat model, treatment in chronic phase (Example 6); format: in vivo
Description: Subsequently after Example 5, lactoferrin (100 mg/kg) was orally administered for 7 consecutive days starting from day 19 after the adjuvant treatment, when the adjuvant treated rats were in the chronic phase of inflammation.

[13] = tested on: adjuvant arthritis models; assay: adjuvant arthritis, Flexion test after a single oral dose (Example 7); format: in vivo, rat
Description: On day 25 after the adjuvant treatment, the rats were divided into 6 groups and administered once BSA (bovine serum albumin) or LF (lactoferrin), and after 3 hours, the pain index was measured for each group by Flexion test in the manner as in Example 5. Thirty minutes before Flexion test, saline solution, morphine or naloxone was administered subcutaneously.

IL-10 production = assay: LPS-stimulated cytokine production in rats with adjuvant arthritis, ELISA (Example 8); format: in vivo, rat; conditions: LPS 1 mg/kg i.p., blood 3 hours later
Description: (§4) It is known that in adjuvant arthritis models, the production of cytokines due to the LPS stimulation increases considerably, compared with normal animals, because the reactivity of their immune system increases due to chronic inflammation.
(§5) One mg/kg of LPS was administered intraperitoneally to rats with adjuvant arthritis to stimulate the production of cytokines. Three hours after the LPS administration, the blood was collected from each rat and the quantities of cytokines were measure by ELISA. The groups to be administered a single dose of lactoferrin (groups B and C) were given orally 0.5% CMC once daily until the experiment day to allow the experiment conditions to match those of the group to be administered lactoferrin for 19 consecutive days. The group to be administered lactoferrin for 19 consecutive days (group E) was administered orally lactoferrin once daily from the very day when treated with adjuvant. The design of the experiment is shown in Table 2 and the results in FIG. 14.

TNF-α production = assay: as above; format: in vivo, rat; conditions: LPS 1 mg/kg i.p., blood 3 hours later
Description: as §4, §5

male Wistar rats [14] = assay: formalin test, intrathecal administration, comparison with morphine (Example 12); format: in vivo; conditions: 30 minutes before formalin, bLF 0.1 to 100 μg/rat, rhLF 100 μg/rat, morphine 10 μg/rat, FIGS. 15
Description: Groups consisting of male Wistar rats 6 weeks of age (n=6 to 8) were intrathecally administered 0.1 to 100 μg/rat of bovine lactoferrin (bLF), 100 μg/rat of recombinant human lactoferrin (rhLF) or 10 μg/rat of morphine (Mor) 30 minutes before formalin was injected into their foot pads. The results are shown in FIGS. 15: the number of the foot-lifting times in the phase 1 pain (left graph) and the number of the foot-lifting times in the phase 2 pain (right graph).

male Wistar rats [15] = assay: formalin test, enhancement of analgesic effect of morphine (Example 13); format: in vivo; conditions: 10 ng/rat bovine lactoferrin with 1 to 10,000 ng/rat morphine; several 10- to 100-fold or more; FIG. 16
Description: The lactoferrin's effect of enhancing the analgesic effect of morphine was examined by administering 1 to 10,000 ng/rat of morphine concurrently with 10 ng/rat of bovine lactoferrin (▪) or alone (●) in the same manner as in Example 12. The results are shown in FIG. 16: the number of the foot-lifting times in the phase 1 pain (left graph) and the number of foot-lifting time in the phase 2 pain (right graph).

pepsin = format: in vitro ADME
Description: (§6) Preferably the composition of this invention, as a composition for an oral formulation, is made into an enteric-coated dosage form. The inventors of this invention hypothesize that there exists a structure, which can be referred to as a lactoferrin sensor, on the mucosa of the intestinal tract, as described in detail in International Patent Application, PCT/JP01/10212 (WO02/41912).

protease = assay: resistance of lactoferrin to protease; format: in vitro ADME
Description: as §6

[16] = lactoferrin orally for 19 consecutive days
[17] = single oral dose of lactoferrin

B1: lactoferrin (protein, UniProt P24627 20-708, looked up)
Lactotransferrin: APRKNVRWCTISQPEWFKCRRWQWRMKKLGAPSITCVRRAFALECIRAIAEKKADAVTLDGGMVFEAGRDPYKLRPVAAEIYGTKESPQTHYYAVAVVKKGSNFQLDQLQGRKSCHTGLGRSAGWIIPMGILRPYLSWTESLEPLQGAVAKFFSASCVPCIDRQAYPNLCQLCKGEGENQCACSSREPYFGYSGAFKCLQDGAGDVAFVKETTVFENLPEKADRDQYELLCLNNSRAPVDAFKECHLAQVPSHAVVARSVDGKEDLIWKLLSKAQEKFGKNKSRSFQLFGSPPGQRDLLFKDSALGFLRIPSKVDSALYLGSRYLTTLKNLRETAEEVKARYTRVVWCAVGPEEQKKCQQWSQQSGQNVTCATASTTDDCIVLVLKGEADALNLDGGYIYTAGKCGLVPVLAENRKSSKHSSLDCVLRPTEGYLAVAVVKKANEGLTWNSLKDKKSCHTAVDRTAGWNIPMGLIVNQTGSCAFDEFFSQSCAPGADPKSRLCALCAGDDQGLDKCVPNSKEKYYGYTGAFRCLAEDVGDVAFVKNDTVWENTNGESTADWAKNLNREDFRLLCLDGTRKPVTEAQSCHLAVAPNHAVVSRSDRAAHVKQVLLHQQALFGKNGKNCPDKFCLFKSETKNLLFNDNTECLAKLGGRPTYEEYLGTEYVTAIANLKKCSTSPLLEACAFLTR
notes: bovine lactoferrin extracted from milk (Tatua Milk Industry Co., Ltd., purity 87%)
abnormal findings, single dose acute toxicity (beagles [1]): no abnormal findings were observed | abnormal findings, single dose acute toxicity (rats [2]): no abnormal findings were observed | abnormal findings, subacute toxicity (beagles [3]): no abnormal findings were observed | abnormal findings, subacute toxicity (rats [4]): no abnormal findings were observed | sensation of pain against the stimulation (rodent animals [5]): weakened sensation of pain | sensation of pain against the stimulation (rodent animals [6]): weakened sensation of pain | foot-lifting behavior (male Wistar rats [7]; i.p. 100 ml/kg one hour before formalin, measured for one hour, vs control P<0.0001, FIG. 1): significantly decreased | number of times rats lifted their feet within 50 minutes after formalin injection (phase 2 pain) (male Wistar rats [7]; i.p. one hour before formalin, vs control, FIG. 2): more significantly decreased | foot-licking behavior (male Wistar rats [7]; i.p., higher doses, data not shown): significantly decreased | foot-licking behavior (male Wistar rats [8]): significantly decreased | phase 2 pain sensation stimulation induced by formalin (male Wistar rats [8]; FIG. 4): significantly inhibiting | stimulation of the pain sensation (foot-lifting) (male Wistar rats [8]; vs control P<0.0001, FIG. 3): weakened the sensitivity to pain | inhibition of phase 1 pain (male Wistar rats [9]; FIG. 5): inhibited dose-dependently | inhibition of phase 2 pain (male Wistar rats [9]; FIG. 5): inhibited dose-dependently | duration of pain inhibiting effect after formalin injection (male Wistar rats [9]; FIGS. 7 and 8): ≥ 60 min | area of the hemorrhage per rat, decreased to (male Wistar rats [10]): 79% | area of the ulcers, decreased to (male Wistar rats [10]): about 30% | number of the large ulcers, decreased to (male Wistar rats [10]): 50% | number of the ulcers, decreased to (male Wistar rats [10]): 50% | number, per rat, of hemorrhagic spots on the gastric mucosa, decreased to (male Wistar rats [10]): 87% | swelling rate of the feet ([11]; 18 consecutive days from day 0, FIG. 10): significantly lower | Flexion test (screams, pain index) ([11]; days 4 and 10 after adjuvant, FIG. 11): neither screamed nor showed pain sensation reaction | pain index in Flexion test ([12]; 7 consecutive days from day 19, LF vs control from day 1, Dex vs lactoferrin groups, FIG. 12C): significantly lower | swelling of feet ([12]; 7 consecutive days from day 19 after adjuvant, LF 100 mg/kg oral (day 7 vs control), Dex 1 mg/kg (from day 1)): significantly lower | analgesic effect of lactoferrin with naloxone ([13]; LF 100 mg/kg oral plus naloxone 3 mg/kg s.c. 30 mins before Flexion test): completely inhibited by naloxone | sensitivity to pain in the joints (Flexion test) ([13]; single oral dose 10 to 100 mg/kg, 3 hrs before test, day 25 after adjuvant, FIG. 13): inhibited the sensitivity to pain in the joints dose-dependently | IL-10 production (IL-10 production; [16]): increase | IL-10 production (IL-10 production; [17]): increase | TNF-α production (TNF-α production; [16]): significant inhibition | TNF-α production (TNF-α production; [17]): significant inhibition | phase 1 pain (number of foot-lifting times) (male Wistar rats [14]): inhibits | phase 2 pain (number of foot-lifting times) (male Wistar rats [14]): inhibits | enhancement of the analgesic effect of morphine, phase 1 pain (male Wistar rats [15]): 10- to 100 fold | enhancement of the analgesic effect of morphine, phase 2 pain (male Wistar rats [15]): 10- to 100 fold | sensitivity to pepsin (pepsin): highly sensitive | resistance to protease (protease): significantly resistive
